The values that follow come from US20240301429A1 (RSEM LIMITED PARTNERSHIP, published 2024).

Sequences and labels used below:
T1: SEMA3A-FC (R&D systems) (Homo sapiens (Human), UniProt Q14563 22-771)
T1 construct: Bought reagent; not shown: Fc portion of the bought fusion, detected with anti-human IgG
T1 sequence: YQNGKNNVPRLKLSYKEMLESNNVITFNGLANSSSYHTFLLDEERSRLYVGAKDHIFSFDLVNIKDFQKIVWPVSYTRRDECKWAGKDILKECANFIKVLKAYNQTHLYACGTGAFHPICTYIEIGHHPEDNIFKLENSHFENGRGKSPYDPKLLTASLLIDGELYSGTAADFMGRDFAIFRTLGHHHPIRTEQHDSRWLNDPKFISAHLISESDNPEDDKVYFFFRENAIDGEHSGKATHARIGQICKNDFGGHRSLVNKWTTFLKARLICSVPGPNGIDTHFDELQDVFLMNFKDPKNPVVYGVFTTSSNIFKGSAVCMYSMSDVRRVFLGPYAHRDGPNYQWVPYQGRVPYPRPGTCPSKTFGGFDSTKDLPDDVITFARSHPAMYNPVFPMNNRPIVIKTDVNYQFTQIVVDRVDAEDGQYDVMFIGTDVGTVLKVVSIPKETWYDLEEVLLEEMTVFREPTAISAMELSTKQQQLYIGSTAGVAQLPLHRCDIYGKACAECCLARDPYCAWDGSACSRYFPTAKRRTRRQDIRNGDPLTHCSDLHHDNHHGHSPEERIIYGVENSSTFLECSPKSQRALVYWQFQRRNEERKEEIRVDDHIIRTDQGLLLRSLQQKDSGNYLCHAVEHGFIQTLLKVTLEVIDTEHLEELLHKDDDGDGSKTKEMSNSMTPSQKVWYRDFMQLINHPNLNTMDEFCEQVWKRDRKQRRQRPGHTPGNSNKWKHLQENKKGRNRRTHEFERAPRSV

B1: NRP1 trap AK (receptor)
chain: FRNDKRGPECSQNYTTPSGVIKSPGFPEKYPNSLECTYIVFAPKMSEIILEFESFDLEPDSNPPGGMFCRYDRLEIWDGFPDVGPHIGRYCGQKTPGRIRSSSGILSMVFYTDSAIAKEGFSANYSVLQSSVSEDFKCMEALGMESGEIHSDQITASSQYSTNWSAERSRLNYPENGWTPGEDSYREWIQVDLGLLRFVTAVGTQGAISKETKKKYYVKTYKIDVSSNGEDWITIKEGNKPVLFQGNTNPTDVVVAVFPKPLITRFVRIKPATWETGISMRFEVYGCKITDYPCSGMLGMVSGLISDSQITSSNQGDRNWMPENIRLVTSRSGWALPPAPHSYINEWLQIDLGEEKIVRGIIIQGGKHRENKVFMRKFKIGYSNNGSDWKMIMDDSKRKAKSFEGNNNYDTPELRTFPALSTRFIRIYPERATHGGLGLRMELLGCRSGSKENLYFQG
notes: a2b1b2; Signal peptide not trimmed
B2: NRP1 trap Z (receptor)
chain: FRNDKCGDTIKIESPGYLTSPGYPHSYHPSEKCEWLIQAPDPYQRIMINFNPHFDLEDRDCKYDYVEVFDGENENGHFRGKFCGKIAPPPVVSSGPFLFIKFVSDYETHGAGFSIRYELFKRGPECSQNYTTPSGVIKSPGFPEKYPNSLECTYIVFAPKMSEIILEFESFDLEPDSNPPGGMFCRYDRLEIWDGFPDVGPHIGRYCGQKTPGRIRSSSGILSMVFYTDSAIAKEGFSANYSVLQSSVSEDFKCMEALGMESGEIHSDQITASSQYSTNWSAERSRLNYPENGWTPGKKSYREWIQVDLGLLRFVTAVGTQGAISKETKKKYYVKTYKIDVSSNGEDWITIKEGNKPVLFQGNTNPTDVVVAVFPKPLITRFVRIKPATWETGISMRFEVYGCKITDYPCSGMLGMVSGLISDSQITSSNQGDRNWMPENIRLVTSRSGWALPPAPHSYINEWLQIDLGEEKIVRGIIIQGGKHRENKVFMRKFKIGYSNNGSDWKMIMDDSKRKAKSFEGNNNYDTPELRTFPALSTRFIRIYPERATHGGLGLRMELLGCEVEAPTAGPTTPNGNLVDECDDDQANCHSGTGDDFQLTGGTTVLATEKPTVIDSTIQSEFPTYGFNCEFGWGSHKTFCHWEHDNHVQLKWSVLTSKTGPIQDHTGDGNFIYSQADENQKGKVARLVSPVVYSQNSAHCMTFWYHMSGSHVGTLRVKLRYQKPEEYDQLVWMAIGHQGDHWKEGRVLLHKSLKLYQVIFEGEIGKGNLGGIAVDDISINNHISQEDCAKPADLDKKNPEIKIDETGSTPGYEGEGEGDKNISRKPGNVLKTLDPRSGSKENLYFQG
notes: a1a2-b1b2-c with E319K, D320K (held in the entry); Signal peptide not trimmed
B3: NRP1 trap M (receptor)
chain: FRNDKCGDTIKIESPGYLTSPGYPHSYHPSEKCEWLIQAPDPYQRIMINFNPHFDLEDRDCKYDYVEVFDGENENGHFRGKFCGKIAPPPVVSSGPFLFIKFVSDYETHGAGFSIRYELFKRGPECSQNYTTPSGVIKSPGFPEKYPNSLECTYIVFAPKMSEIILEFESFDLEPDSNPPGGMFCRYDRLEIWDGFPDVGPHIGRYCGQKTPGRIRSSSGILSMVFYTDSAIAKEGFSANYSVLQSSVSEDFKCMEALGMESGEIHSDQITASSQYSTNWSAERSRLNYPENGWTPGEDSYREWIQVDLGLLRFVTAVGTQGAISKETKKKYYVKTYKIDVSSNGEDWITIKEGNKPVLFQGNTNPTDVVVAVFPKPLITRFVRIKPATWETGISMRFEVYGCRSGSKENLYFQG
notes: a1a2-b1; Signal peptide not trimmed
B4: NRP1 trap P (receptor)
chain: FRNDKCGDTIKIESPGYLTSPGYPHSYHPSEKCEWLIQAPDPYQRIMINFNPHFDLEDRDCKYDYVEVFDGENENGHFRGKFCGKIAPPPVVSSGPFLFIKFVSDYETHGAGFSIRYELFKRGPECSQNYTTPSGVIKSPGFPEKYPNSLECTYIVFAPKMSEIILEFESFDLEPDSNPPGGMFCRYDRLEIWDGFPDVGPHIGRYCGQKTPGRIRSSSGILSMVFYTDSAIAKEGFSANYSVLQSSVSEDFKCMEALGMESGEIHSDQITASSQASTNWSAERSRLNYPENGWTPGEDSYREWIQVDLGLLRFVTAVGTQGAISKETKKKYYVKTYKIDVSSNGEDWITIKEGNKPVLFQGNTNPTDVVVAVFPKPLITRFVRIKPATWETGISMRFEVYGCRSGSKENLYFQG
notes: a1a2-b1 with Y297A (held in the entry); Signal peptide not trimmed
B5: NRP1 trap AD (receptor)
chain: FRNDKCGDTIKIESPGYLTSPGYPHSYHPSEKCEWLIQAPDPYQRIMINFNPHFDLEDRDCKYDYVEVFDGENENGHFRGKFCGKIAPPPVVSSGPFLFIKFVSDYETHGAGFSIRYELFKRGPECSQNYTTPSGVIKSPGFPEKYPNSLECTYIVFAPKMSEIILEFESFDLEPDSNPPGGMFCRYDRLEIWDGFPDVGPHIGRYCGQKTPGRIRSSSGILSMVFYTDSAIAKEGFSANYSVLQSSVSEDFKCMEALGMESGEIHSDQITASSQYSTNWSAERSRLNYPENGWTPGEKSYREWIQVDLGLLRFVTAVGTQGAISKETKKKYYVKTYKIDVSSNGEDWITIKEGNKPVLFQGNTNPTDVVVAVFPKPLITRFVRIKPATWETGISMRFEVYGCRSGSKENLYFQG
notes: Signal peptide not trimmed
B6: NRP1 trap AJ (receptor)
chain: FRNDKRGPECSQNYTTPSGVIKSPGFPEKYPNSLECTYIVFAPKMSEIILEFESFDLEPDSNPPGGMFCRYDRLEIWDGFPDVGPHIGRYCGQKTPGRIRSSSGILSMVFYTDSAIAKEGFSANYSVLQSSVSEDFKCMEALGMESGEIHSDQITASSQYSTNWSAERSRLNYPENGWTPGEDSYREWIQVDLGLLRFVTAVGTQGAISKETKKKYYVKTYKIDVSSNGEDWITIKEGNKPVLFQGNTNPTDVVVAVFPKPLITRFVRIKPATWETGISMRFEVYGCKITDYPCSGMLGMVSGLISDSQITSSNQGDRNWMPENIRLVTSRSGWALPPAPHSYINEWLQIDLGEEKIVRGIIIQGGKHRENKVFMRKFKIGYSNNGSDWKMIMDDSKRKAKSFEGNNNYDTPELRTFPALSTRFIRIYPERATHGGLGLRMELLGCEVEAPTAGPTTPNGNLVDECDDDQANCHSGTGDDFQLTGGTTVLATEKPTVIDSTIQSEFPTYGFNCEFGWGSHKTFCHWEHDNHVQLKWSVLTSKTGPIQDHTGDGNFIYSQADENQKGKVARLVSPVVYSQNSAHCMTFWYHMSGSHVGTLRVKLRYQKPEEYDQLVWMAIGHQGDHWKEGRVLLHKSLKLYQVIFEGEIGKGNLGGIAVDDISINNHISQEDCAKPADLDKKNPEIKIDETGSTPGYEGEGEGDKNISRKPGNVLKTLDPRSGSKENLYFQG
notes: a2b1b2c; Signal peptide not trimmed
B7: NRP1 trap AE (receptor)
chain: FRNDKCGDTIKIESPGYLTSPGYPHSYHPSEKCEWLIQAPDPYQRIMINFNPHFDLEDRDCKYDYVEVFDGENENGHFRGKFCGKIAPPPVVSSGPFLFIKFVSDYETHGAGFSIRYELFKRGPECSQNYTTPSGVIKSPGFPEKYPNSLECTYIVFAPKMSEIILEFESFDLEPDSNPPGGMFCRYDRLEIWDGFPDVGPHIGRYCGQKTPGRIRSSSGILSMVFYTDSAIAKEGFSANYSVLQSSVSEDFKCMEALGMESGEIHSDQITASSQYSTNWSAERSRLNYPENGWTPGEKSYREWIQVDLGLLRFVTAVGTQGAISKETKKKYYVKTYKIDVSSNGEDWITIKEGNKPVLFQGNTNPTDVVVAVFPKPLITRFVRIKPATWETGISMRFEVYGCKITDYPCSGMLGMVSGLISDSQITSSNQGDRNWMPENIRLVTSRSGWALPPAPHSYINEWLQIDLGEEKIVRGIIIQGGKHRENKVFMRKFKIGYSNNGSDWKMIMDDSKRKAKSFEGNNNYDTPELRTFPALSTRFIRIYPERATHGGLGLRMELLGCRSGSKENLYFQG
notes: Signal peptide not trimmed
B8: NRP1 trap Q (receptor)
chain: FRNDKCGDTIKIESPGYLTSPGYPHSYHPSEKCEWLIQAPDPYQRIMINFNPHFDLEDRDCKYDYVEVFDGENENGHFRGKFCGKIAPPPVVSSGPFLFIKFVSDYETHGAGFSIRYELFKRGPECSQNYTTPSGVIKSPGFPEKYPNSLECTYIVFAPKMSEIILEFESFDLEPDSNPPGGMFCRYDRLEIWDGFPDVGPHIGRYCGQKTPGRIRSSSGILSMVFYTDSAIAKEGFSANYSVLQSSVSEDFKCMEALGMESGEIHSDQITASSQASTNWSAERSRLNYPENGWTPGEDSYREWIQVDLGLLRFVTAVGTQGAISKETKKKYYVKTYKIDVSSNGEDWITIKEGNKPVLFQGNTNPTDVVVAVFPKPLITRFVRIKPATWETGISMRFEVYGCKITDYPCSGMLGMVSGLISDSQITSSNQGDRNWMPENIRLVTSRSGWALPPAPHSYINEWLQIDLGEEKIVRGIIIQGGKHRENKVFMRKFKIGYSNNGSDWKMIMDDSKRKAKSFEGNNNYDTPELRTFPALSTRFIRIYPERATHGGLGLRMELLGCRSGSKENLYFQG
notes: a1a2-b1b2 with Y297A (held in the entry); Signal peptide not trimmed

The assay addresses T1, SEMA3A-FC (R&D systems). Nature of the assay: saturation binding, trap coated on plate, SEMA3A-FC titrated, anti-human IgG-HRP chemiluminescence. How it is done:
Sema 3A and AP-VEGF₁₆₅ binding assays. Saturation curves for the determinations of KD of binding to SEMA 3A or VEGF165 were obtained as follow. Wells of high protein binding 96 well plates (Maxisorp, Nunc) were coated with purified traps diluted in PBS and blocked afterward with binding buffer (PBS containing 2% casein and 0.05% Tween 20). The SEMA3A-FC (R&D systems) or AP-VEGF165 ligands were diluted in binding buffer over an extensive range of concentrations and added to wells. Following an overnight incubation, wells were washed with PBS containing 0.05% tween. Bound SEMA3a-FC was detected using an HRP-linked anti-Human IgG (Biorad) and ECL substrate (Pierce). Alternatively, bound AP-VEGF165 was detected using CPD star substrate (Roche). The Chemiluminescent signal was acquired on a TECAN reader. Dissociation constant (KD) were determined by non-linear curve fitting using the Graph Pad prism software.
With B1, binding was characterised by a dissociation constant (Kd) of 4.4 nM.
For B2, binding was put at a Kd of 4.44 nM.
With B3, the Kd – broadly, a measure of binding affinity in units of concentration – amounted to 0.95 nM.
In the case of B4, the binding result is “no binding”.
Regarding B5, the binding result is listed as “no binding”.
As to B6, binding was characterised by a dissociation constant (Kd) of 2.4 nM.
Take B7: the binding result is “no binding”.
Regarding B8, the binding result is “no binding”.
